Experiment [1] addresses FGF receptor 2b (FGFR2b) naturally expressed on 4MBr-5 rhesus monkey bronchial epithelial cells (rhesus monkey). The experiment can be described thus: cell-based or functional assay.
Experiment [2] addresses FGFR2 receptor endogenously expressed on mammary adenocarcinoma MCF7 cells (UniProt P21802). The experiment can be described thus: cell-based or functional assay.

We go through 6 substances from US20250353888A1.

Sequence of FGFR2 receptor endogenously expressed on mammary adenocarcinoma MCF7 cells (P21802 22-821): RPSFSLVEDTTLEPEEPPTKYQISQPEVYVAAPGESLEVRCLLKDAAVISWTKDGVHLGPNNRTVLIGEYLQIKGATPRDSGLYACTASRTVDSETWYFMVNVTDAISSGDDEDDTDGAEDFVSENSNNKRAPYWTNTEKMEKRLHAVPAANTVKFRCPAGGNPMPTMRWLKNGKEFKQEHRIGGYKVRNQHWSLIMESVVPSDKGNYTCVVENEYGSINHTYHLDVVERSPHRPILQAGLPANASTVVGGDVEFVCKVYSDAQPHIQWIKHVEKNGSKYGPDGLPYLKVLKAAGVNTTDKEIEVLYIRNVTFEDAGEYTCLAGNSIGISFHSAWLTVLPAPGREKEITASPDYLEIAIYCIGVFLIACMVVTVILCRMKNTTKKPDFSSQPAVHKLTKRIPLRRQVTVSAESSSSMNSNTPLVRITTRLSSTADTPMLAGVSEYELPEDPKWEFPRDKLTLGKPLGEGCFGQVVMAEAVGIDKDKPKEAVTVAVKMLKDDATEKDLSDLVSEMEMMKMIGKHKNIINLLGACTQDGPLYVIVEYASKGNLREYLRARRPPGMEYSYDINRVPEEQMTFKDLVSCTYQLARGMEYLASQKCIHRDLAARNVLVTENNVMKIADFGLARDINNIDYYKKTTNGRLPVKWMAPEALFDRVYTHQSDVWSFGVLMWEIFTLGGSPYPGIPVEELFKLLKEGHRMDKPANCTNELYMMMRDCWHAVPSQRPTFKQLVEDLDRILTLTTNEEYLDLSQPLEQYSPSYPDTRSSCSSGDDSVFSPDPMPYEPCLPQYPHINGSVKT

In experiment [1], “FGF10 from Falco peregrinus (FGF10-Fp) (ligand)” returned an ED50, proliferation of 4MBr-5 cells (resazurin) of 12.7 ng/mL.

For “FGF10 single-point mutant L152F (ligand)”, in experiment [1], the ED50, proliferation of lung epithelial 4MBr-5 cells (resazurin) was 1.4 ng/mL.

“FGF10-Fp+L152F (single point variant of FGF10-Fp) (ligand)” returned an ED50, proliferation of 4MBr-5 cells (resazurin) in experiment [1] of 6.1 ng/mL.

Turning to “FGF10-STAB (4-point mutant of FGF10: V123I+L152F+Q175E+N181D) (ligand)”, in experiment [1], the ED50 (ng/mL) determined using 4MBr-5 cells; no preincubation (control) turned out to be 0.37 ng/mL, the ED50 (ng/mL) determined using 4MBr-5 cells; protein preincubated at 37° C. for 1 day was found to be 1 ng/mL, the ED50 (ng/mL) determined using 4MBr-5 cells; protein preincubated at 37° C. for 3 days came to 0.26 ng/mL and the ED50 (ng/mL) determined using 4MBr-5 cells; protein preincubated at 37° C. for 7 days was found to be 11.1 ng/mL. Moreover, the ED50, proliferation of 4MBr-5 cells (resazurin) in experiment [1] amounted to 0.21 ng/mL. This substance showed a pKrox24 (MapERK)-DsRed reporter induction in MCF7 cells, 100 ng/mL, 24 hr (times, against FGF10-wt) in experiment [2] of 2.5.

“FGF10-wt (recombinant mature human FGF10, Leu40-Ser208, with N-terminal His-tag and thrombin cleavage site) (ligand)”: in experiment [1], the ED50 (ng/mL) determined using 4MBr-5 cells; no preincubation (control) was determined as 0.95 ng/mL, the ED50 (ng/mL) determined using 4MBr-5 cells; protein preincubated at 37° C. for 1 day was found to be 12.5 ng/mL, the ED50 (ng/mL) determined using 4MBr-5 cells; protein preincubated at 37° C. for 3 days was 21.1 ng/mL and the ED50 (ng/mL) determined using 4MBr-5 cells; protein preincubated at 37° C. for 7 days was 34.8 ng/mL. The ED50, proliferation of lung epithelial 4MBr-5 cells (resazurin) in experiment [1] was found to be 0.8 ng/mL.

For the substance FGF10^69-208+L152F (ligand), the ED50, proliferation of 4MBr-5 cells (resazurin) in experiment [1] was found to be 1.9 ng/mL.
